Source: article PMC10786891, “Massively parallel profiling of RNA-targeting CRISPR-Cas13d”

T1: EsCas13d, nuclease-dead (Eubacterium siraeum, UniProt B0MS50, R295A;H300A;R849A;H854A)
T1 sequence: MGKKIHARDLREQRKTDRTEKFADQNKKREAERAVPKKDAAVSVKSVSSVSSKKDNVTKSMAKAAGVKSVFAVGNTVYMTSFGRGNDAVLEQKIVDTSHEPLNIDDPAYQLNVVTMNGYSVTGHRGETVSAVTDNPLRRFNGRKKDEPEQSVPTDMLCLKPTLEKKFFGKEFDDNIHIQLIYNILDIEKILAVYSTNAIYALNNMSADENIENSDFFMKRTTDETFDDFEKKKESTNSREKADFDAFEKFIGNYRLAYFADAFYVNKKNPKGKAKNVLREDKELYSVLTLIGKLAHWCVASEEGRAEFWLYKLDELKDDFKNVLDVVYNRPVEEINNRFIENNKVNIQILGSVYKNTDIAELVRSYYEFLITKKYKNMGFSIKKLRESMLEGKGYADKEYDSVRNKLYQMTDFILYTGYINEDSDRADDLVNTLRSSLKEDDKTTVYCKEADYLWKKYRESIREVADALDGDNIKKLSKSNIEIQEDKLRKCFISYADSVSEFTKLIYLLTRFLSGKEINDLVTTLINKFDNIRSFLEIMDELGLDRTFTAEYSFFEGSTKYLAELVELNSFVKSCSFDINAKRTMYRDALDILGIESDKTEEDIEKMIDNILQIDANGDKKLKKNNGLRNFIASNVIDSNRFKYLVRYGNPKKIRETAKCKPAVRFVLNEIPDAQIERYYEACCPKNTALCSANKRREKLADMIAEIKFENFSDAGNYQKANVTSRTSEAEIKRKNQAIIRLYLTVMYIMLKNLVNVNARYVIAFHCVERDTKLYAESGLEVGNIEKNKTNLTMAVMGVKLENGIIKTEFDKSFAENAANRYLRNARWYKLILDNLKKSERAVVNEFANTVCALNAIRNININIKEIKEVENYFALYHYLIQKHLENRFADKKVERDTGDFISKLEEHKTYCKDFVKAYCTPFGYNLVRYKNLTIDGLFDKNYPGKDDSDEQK

B1: target 1 MT 5'PFS UCG 3'PFS AAA (mixed)
RNA 1: CACCCGUGCAAAAAUGCAGGGGUCUAAAACUGAGCGGAUAACCUCUCUAUGG
RNA 2: GGGAAUGGAUCCACAUCUACGAAUUCUCGCCAUAGAGAGGUUAUCCGCUCAAAAAGAUCGGAAGAGCACACGU
B2: target 1 MT 5'PFS GAC 3'PFS CGA (mixed)
RNA 1: CACCCGUGCAAAAAUGCAGGGGUCUAAAACUGAGCGGAUAACCUCUCUAUGG
RNA 2: GGGAAUGGAUCCACAUCUACGAAUUCGACCCAUAGAGAGGUUAUCCGCUCACGAAGAUCGGAAGAGCACACGU
B3: target 1 MT 5'PFS GAC 3'PFS CGC (mixed)
RNA 1: CACCCGUGCAAAAAUGCAGGGGUCUAAAACUGAGCGGAUAACCUCUCUAUGG
RNA 2: GGGAAUGGAUCCACAUCUACGAAUUCGACCCAUAGAGAGGUUAUCCGCUCACGCAGAUCGGAAGAGCACACGU
B4: target 1 MT 5'PFS GAC 3'PFS CGG (mixed)
RNA 1: CACCCGUGCAAAAAUGCAGGGGUCUAAAACUGAGCGGAUAACCUCUCUAUGG
RNA 2: GGGAAUGGAUCCACAUCUACGAAUUCGACCCAUAGAGAGGUUAUCCGCUCACGGAGAUCGGAAGAGCACACGU
B5: target 1 MT 5'PFS UCG 3'PFS AAU (mixed)
RNA 1: CACCCGUGCAAAAAUGCAGGGGUCUAAAACUGAGCGGAUAACCUCUCUAUGG
RNA 2: GGGAAUGGAUCCACAUCUACGAAUUCUCGCCAUAGAGAGGUUAUCCGCUCAAAUAGAUCGGAAGAGCACACGU
B6: target 1 MT 5'PFS UUG 3'PFS ACC (mixed)
RNA 1: CACCCGUGCAAAAAUGCAGGGGUCUAAAACUGAGCGGAUAACCUCUCUAUGG
RNA 2: GGGAAUGGAUCCACAUCUACGAAUUCUUGCCAUAGAGAGGUUAUCCGCUCAACCAGAUCGGAAGAGCACACGU
B7: target 1 MT 5'PFS CUU 3'PFS CCC (mixed)
RNA 1: CACCCGUGCAAAAAUGCAGGGGUCUAAAACUGAGCGGAUAACCUCUCUAUGG
RNA 2: GGGAAUGGAUCCACAUCUACGAAUUCCUUCCAUAGAGAGGUUAUCCGCUCACCCAGAUCGGAAGAGCACACGU
B8: target 1 insA 3' of 11,insG 3' of 2 (mixed)
RNA 1: CACCCGUGCAAAAAUGCAGGGGUCUAAAACUGAGCGGAUAACCUCUCUAUGG
RNA 2: GGGAAUGGAUCCACAUCUACGAAUUCGUACCAUAGAGAGGUAUAUCCGCUCGACCGAGAUCGGAAGAGCACACGU
B9: target 1 MT 5'PFS GAC 3'PFS CGU (mixed)
RNA 1: CACCCGUGCAAAAAUGCAGGGGUCUAAAACUGAGCGGAUAACCUCUCUAUGG
RNA 2: GGGAAUGGAUCCACAUCUACGAAUUCGACCCAUAGAGAGGUUAUCCGCUCACGUAGAUCGGAAGAGCACACGU
B10: target 1 MT 5'PFS UAA 3'PFS UAC (mixed)
RNA 1: CACCCGUGCAAAAAUGCAGGGGUCUAAAACUGAGCGGAUAACCUCUCUAUGG
RNA 2: GGGAAUGGAUCCACAUCUACGAAUUCUAACCAUAGAGAGGUUAUCCGCUCAUACAGAUCGGAAGAGCACACGU
B11: target 1 MT 5'PFS UAA 3'PFS UAA (mixed)
RNA 1: CACCCGUGCAAAAAUGCAGGGGUCUAAAACUGAGCGGAUAACCUCUCUAUGG
RNA 2: GGGAAUGGAUCCACAUCUACGAAUUCUAACCAUAGAGAGGUUAUCCGCUCAUAAAGAUCGGAAGAGCACACGU
B12: target 1 MT 5'PFS CUU 3'PFS ACC (mixed)
RNA 1: CACCCGUGCAAAAAUGCAGGGGUCUAAAACUGAGCGGAUAACCUCUCUAUGG
RNA 2: GGGAAUGGAUCCACAUCUACGAAUUCCUUCCAUAGAGAGGUUAUCCGCUCAACCAGAUCGGAAGAGCACACGU
B13: target 1 MT 5'PFS CUC 3'PFS UAU (mixed)
RNA 1: CACCCGUGCAAAAAUGCAGGGGUCUAAAACUGAGCGGAUAACCUCUCUAUGG
RNA 2: GGGAAUGGAUCCACAUCUACGAAUUCCUCCCAUAGAGAGGUUAUCCGCUCAUAUAGAUCGGAAGAGCACACGU
B14: target 1 MT 5'PFS UAA 3'PFS UAU (mixed)
RNA 1: CACCCGUGCAAAAAUGCAGGGGUCUAAAACUGAGCGGAUAACCUCUCUAUGG
RNA 2: GGGAAUGGAUCCACAUCUACGAAUUCUAACCAUAGAGAGGUUAUCCGCUCAUAUAGAUCGGAAGAGCACACGU
B15: target 1 MT 5'PFS GGG 3'PFS AAA (mixed)
RNA 1: CACCCGUGCAAAAAUGCAGGGGUCUAAAACUGAGCGGAUAACCUCUCUAUGG
RNA 2: GGGAAUGGAUCCACAUCUACGAAUUCGGGCCAUAGAGAGGUUAUCCGCUCAAAAAGAUCGGAAGAGCACACGU
B16: target 1 MT 5'PFS AGG 3'PFS UGC (mixed)
RNA 1: CACCCGUGCAAAAAUGCAGGGGUCUAAAACUGAGCGGAUAACCUCUCUAUGG
RNA 2: GGGAAUGGAUCCACAUCUACGAAUUCAGGCCAUAGAGAGGUUAUCCGCUCAUGCAGAUCGGAAGAGCACACGU
B17: target 1 MT 5'PFS GCC 3'PFS CUU (mixed)
RNA 1: CACCCGUGCAAAAAUGCAGGGGUCUAAAACUGAGCGGAUAACCUCUCUAUGG
RNA 2: GGGAAUGGAUCCACAUCUACGAAUUCGCCCCAUAGAGAGGUUAUCCGCUCACUUAGAUCGGAAGAGCACACGU
B18: target 1 MT 5'PFS AGU 3'PFS UCC (mixed)
RNA 1: CACCCGUGCAAAAAUGCAGGGGUCUAAAACUGAGCGGAUAACCUCUCUAUGG
RNA 2: GGGAAUGGAUCCACAUCUACGAAUUCAGUCCAUAGAGAGGUUAUCCGCUCAUCCAGAUCGGAAGAGCACACGU
B19: target 1 insC 3' of 12,insC 3' of 9 (mixed)
RNA 1: CACCCGUGCAAAAAUGCAGGGGUCUAAAACUGAGCGGAUAACCUCUCUAUGG
RNA 2: GGGAAUGGAUCCACAUCUACGAAUUCGUACCAUAGAGAGGCUUACUCCGCUCACCGAGAUCGGAAGAGCACACGU
B20: target 1 MT 5'PFS GGG 3'PFS UCG (mixed)
RNA 1: CACCCGUGCAAAAAUGCAGGGGUCUAAAACUGAGCGGAUAACCUCUCUAUGG
RNA 2: GGGAAUGGAUCCACAUCUACGAAUUCGGGCCAUAGAGAGGUUAUCCGCUCAUCGAGAUCGGAAGAGCACACGU
B21: target 1 MT 5'PFS GGG 3'PFS UCA (mixed)
RNA 1: CACCCGUGCAAAAAUGCAGGGGUCUAAAACUGAGCGGAUAACCUCUCUAUGG
RNA 2: GGGAAUGGAUCCACAUCUACGAAUUCGGGCCAUAGAGAGGUUAUCCGCUCAUCAAGAUCGGAAGAGCACACGU
B22: target 1 MT 5'PFS GGG 3'PFS UCC (mixed)
RNA 1: CACCCGUGCAAAAAUGCAGGGGUCUAAAACUGAGCGGAUAACCUCUCUAUGG
RNA 2: GGGAAUGGAUCCACAUCUACGAAUUCGGGCCAUAGAGAGGUUAUCCGCUCAUCCAGAUCGGAAGAGCACACGU
B23: target 1 MT 5'PFS GCC 3'PFS CUG (mixed)
RNA 1: CACCCGUGCAAAAAUGCAGGGGUCUAAAACUGAGCGGAUAACCUCUCUAUGG
RNA 2: GGGAAUGGAUCCACAUCUACGAAUUCGCCCCAUAGAGAGGUUAUCCGCUCACUGAGAUCGGAAGAGCACACGU
B24: target 1 MT 5'PFS GAA 3'PFS AUA (mixed)
RNA 1: CACCCGUGCAAAAAUGCAGGGGUCUAAAACUGAGCGGAUAACCUCUCUAUGG
RNA 2: GGGAAUGGAUCCACAUCUACGAAUUCGAACCAUAGAGAGGUUAUCCGCUCAAUAAGAUCGGAAGAGCACACGU
B25: target 1 MT 5'PFS GCC 3'PFS CUC (mixed)
RNA 1: CACCCGUGCAAAAAUGCAGGGGUCUAAAACUGAGCGGAUAACCUCUCUAUGG
RNA 2: GGGAAUGGAUCCACAUCUACGAAUUCGCCCCAUAGAGAGGUUAUCCGCUCACUCAGAUCGGAAGAGCACACGU
B26: target 1 MT 5'PFS GCC 3'PFS CUA (mixed)
RNA 1: CACCCGUGCAAAAAUGCAGGGGUCUAAAACUGAGCGGAUAACCUCUCUAUGG
RNA 2: GGGAAUGGAUCCACAUCUACGAAUUCGCCCCAUAGAGAGGUUAUCCGCUCACUAAGAUCGGAAGAGCACACGU
B27: target 1 MT 5'PFS GGG 3'PFS UCU (mixed)
RNA 1: CACCCGUGCAAAAAUGCAGGGGUCUAAAACUGAGCGGAUAACCUCUCUAUGG
RNA 2: GGGAAUGGAUCCACAUCUACGAAUUCGGGCCAUAGAGAGGUUAUCCGCUCAUCUAGAUCGGAAGAGCACACGU
B28: target 1 MT 5'PFS GUG 3'PFS CGA (mixed)
RNA 1: CACCCGUGCAAAAAUGCAGGGGUCUAAAACUGAGCGGAUAACCUCUCUAUGG
RNA 2: GGGAAUGGAUCCACAUCUACGAAUUCGUGCCAUAGAGAGGUUAUCCGCUCACGAAGAUCGGAAGAGCACACGU

The binders below were run against T1, EsCas13d, nuclease-dead (assay: crRNA (strand 1, pre-loaded); Mg2+; 40 mM Tris-HCl pH 7.5, 150 mM NaCl, 6 mM MgCl2, 1 mM DTT, 0.1% Tween-20, 0.2 mg/ml BSA; 25 C; 10 min per concentration, then washed). Settings: tags: His6-TwinStrep-SUMO cleaved; N-terminal SNAP kept (SNAP-Surface 488); label: 3' end held by stalled T7 RNA polymerase.

B1 and B2 are within error of each other in Kd: 23 ± 8 nM for the first, ~20 nM for the second.

B3 and B4 are within error of each other in Kd: 48.5 ± 14 nM for the first, ~35 nM for the second.

B5 and B6 are within error of each other in Kd: 30 ± 11 nM for the first, 53 ± 23.5 nM for the second.

Compared with B7, B8 is 4.6-fold lower in Kd: 80 ± 40 nM for the first, 17.4 ± 0.8 nM for the second.

B9 and B10 are within error of each other in Kd: 15.5 ± 5 nM for the first, 28 ± 7.5 nM for the second.

Going from B11 to B12, the Kd falls from 46.5 ± 12 nM to ~24 nM (1.9-fold).

Going from B13 to B14, the Kd falls from ~60 nM to 29 ± 6 nM (2.1-fold). The second binds more tightly here.

Compared with B15, B16 is 2.2-fold higher in Kd: 50 ± 11.5 nM for the first, ~110 nM for the second.

B17 and B18 are within error of each other in Kd: 15.6 ± 5.05 nM for the first, 29 ± 11.5 nM for the second.

B19 and B20 are within error of each other in Kd: 21.9 ± 1 nM for the first, 20.7 ± 3.55 nM for the second.

Compared with B21, B22 is 1.5-fold higher in Kd: 18.6 ± 3.75 nM for the first, 28 ± 5 nM for the second.

Going from B23 to B24, the Kd rises from 17 ± 6 nM to 32 ± 7.5 nM (1.9-fold).

First: B25
Second: B26
The Kd of the first is 2.5-fold higher: 33 ± 15 nM for the first, 13.2 ± 3.15 nM for the second.

First: B27
Second: B28
The Kd of the first is 1.6-fold lower: 14.6 ± 2.1 nM for the first, 22.9 ± 2.2 nM for the second.
